Laboratory results from US8431365B2, “β1,3-N-acetyl-D-galactosamine transferase protein, nucleic acid encoding the same and method of examining canceration using the same” (National Institute of Advanced Industrial Science and …, priority 2003, dated 2013).

How the values were obtained:
Assay type in all cases: biochemical
human G34 protein [1] = molecular target: T1, human G34 protein (Homo sapiens, UniProt Q8NCR0); assay: Screening of GalNAc transferase activity (acceptor substrate specificity, monosaccharide acceptors); details: 10 nmol acceptor, MES pH 6.5, MnCl2 10 mM, 37° C. 16 hours
T1 construct: made in house; host or cells: Sf21 insect cells (baculovirus, pFBIF-G34A)
T1 sequence (Q8NCR0 36-500): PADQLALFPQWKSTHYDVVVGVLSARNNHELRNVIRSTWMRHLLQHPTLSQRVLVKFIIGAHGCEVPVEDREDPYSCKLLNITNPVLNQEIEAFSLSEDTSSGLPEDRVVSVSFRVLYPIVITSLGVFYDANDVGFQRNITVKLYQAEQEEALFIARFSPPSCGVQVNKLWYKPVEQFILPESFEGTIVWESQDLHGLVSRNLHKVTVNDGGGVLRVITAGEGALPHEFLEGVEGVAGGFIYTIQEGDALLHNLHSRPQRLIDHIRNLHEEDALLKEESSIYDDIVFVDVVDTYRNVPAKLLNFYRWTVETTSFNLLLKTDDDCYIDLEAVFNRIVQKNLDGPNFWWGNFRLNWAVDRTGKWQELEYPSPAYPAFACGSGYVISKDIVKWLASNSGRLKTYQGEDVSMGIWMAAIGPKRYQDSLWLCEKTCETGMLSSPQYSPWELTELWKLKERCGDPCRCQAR
Description: The following reaction system was used for examining the G34 enzyme protein for its acceptor substrate specificity in its GalNAc transfer activity.
In the reaction solutions shown below, each of the following was used at 10 nmol as an acceptor substrate: pNp-α-Gal, oNp-β-Gal, Bz-α-GlcNAc, pNp-β-GlcNAc, Bz-α-GalNAc, pNp-β-GalNAc, pNp-α-Glc, pNp-β-Glc, pNp-β-GlcA, pNp-α-Fuc, pNp-α-Xyl, pNp-β-Xyl and pNp-α-Man (all purchased from SIGMA), wherein “Gal” represents a D-galactose residue, “Xyl” represents a D-xylose residue, “Fuc” represents a […] residue, “Man” represents a D-mannose residue and “GlcA” represents a glucuronic acid residue.
Each reaction solution was prepared as follows (final concentrations in parentheses): each substrate (10 nmol), MES (2-morpholinoethanesulfonic acid) (pH 6.5, 50 mM), MnCl2 (10 mM), Triton X-100 (trade name) (0.1%), UDP-GalNAc (2 mM) and UDP-[^14C]GlcNAc (40 nCi) were mixed and supplemented with 5 μl G34 enzyme solution, followed by dilution with H2O to a total volume of 20 μl (see Table 1).
The above reaction mixtures were each reacted at 37° C. for 16 hours. After completion of the reaction, 200 μl H2O was added and each mixture was lightly centrifuged to obtain the supernatant. […] The eluate was mixed with 5 ml liquid scintillator ACSII (Amersham Biosciences) and measured for the amount of radiation with a scintillation counter (Beckman Coulter).

human G34 protein [2] = molecular target: T1, human G34 protein; assay: Time course of G34 enzymatic activity with Bz-β-GlcNAc as acceptor
human G34 protein [3] = molecular target: T1, human G34 protein; assay: Optimum buffer and optimum pH for GalNAc transferase activity of G34; details: acceptor pNp-β-GlcNAc
Procedure: The following reaction system was used for examining the optimum buffer and pH for the GalNAc transferase activity of G34. The acceptor substrate used was pNp-β-GlcNAc.
Any one of the following buffers was used (final concentrations in parentheses): MES (2-morpholinoethanesulfonic acid) buffer (pH 5.5, 5.78, 6.0, 6.5 and 6.75, 50 mM), sodium cacodylate buffer (pH 5.0, 5.6, 6.0, 6.2, 6.6, 6.8, 7.0, 7.2, 7.4 and 7.5, 25 mM) and N-[2-hydroxyethyl]piperazine-N′-[2-ethanesulfonic acid](HEPES) buffer (pH 6.75, 7.00, 7.30, 7.40 and 7.50, 14 mM). The substrate (10 nmol), MnCl2 (10 mM), Triton CF-54 (trade name) (0.3%), UDP-GalNAc (2 mM) and […] (40 nCi) were mixed and supplemented with 5 μl G34 enzyme solution, followed by dilution with H2O to a total volume of 20 μl.
The above reaction mixtures were each reacted at 37° C. for 16 hours. After completion of the reaction, 200 μl H2O was added and each mixture was lightly centrifuged to obtain the supernatant. The supernatant was passed through a Sep-Pak plus C18 Cartridge (Waters), which had been washed once with 1 ml methanol and twice with 1 ml H2O and then equilibrated, to allow the substrate and product in the supernatant to adsorb to the cartridge. After washing the cartridge twice with 1 ml H2O, the adsorbed substrate and product were eluted with 1 ml methanol. The eluate was mixed with 5 ml liquid scintillator ACSII (Amersham Biosciences) and measured for the amount of radiation with a scintillation counter (Beckman Coulter).

[4] = sodium cacodylate buffer pH 5.0
[5] = sodium cacodylate buffer pH 5.6
[6] = sodium cacodylate buffer pH 6.0
[7] = sodium cacodylate buffer pH 6.2
[8] = sodium cacodylate buffer pH 6.6
[9] = sodium cacodylate buffer pH 6.8
[10] = sodium cacodylate buffer pH 7.0
[11] = sodium cacodylate buffer pH 7.2
[12] = sodium cacodylate buffer pH 7.4

Q: With `CC(=O)N[C@H]1[C@H](Oc2ccc([N+](=O)[O-])cc2)O[C@H](CO)[C@@H](O)[C@@H]1O` [pNp-β-GlcNAc] as the molecule, how does the “GalNAc transfer to acceptor substrate” value (human G34 protein [1]) read?
A: ability to transfer GalNAc to pNp-β-GlcNAc

B1: G34: human β1,3-N-acetyl-D-galactosaminyltransferase protein (SEQ ID NO: 2), expressed FLAG-tagged from amino acid 36 to the C-terminal end (protein, listed as Homo sapiens)
chain: T1 sequence (Q8NCR0 36-500)
modifications: FLAG tag
Q: How did the “Area (%)” value (human G34 protein [2]; reaction time 1 hour) turn out when B1 was run?
A: 0%

Q: What about the “Area (%)” value (human G34 protein [2]; reaction time 2 hours) of the same molecule?
A: 2.388%

Q: What about the “Area (%)” value (human G34 protein [2]; reaction time 4 hours) of the same molecule?
A: 6.195%

Q: And the “Area (%)” value (human G34 protein [2]; reaction time 16 hours)?
A: 13.719%

Q: What about the “+ (amount of radiation)” value (human G34 protein [3]; HEPES buffer pH 6.75) of the same molecule?
A: 4894

Q: What about the “HEPES (+ minus −)” value (human G34 protein [3]; HEPES buffer pH 6.75) of the same molecule?
A: 4745

Q: And the “+ (amount of radiation)” value (human G34 protein [3]; HEPES buffer pH 7.00)?
A: 4912

Q: What about the “HEPES (+ minus −)” value (human G34 protein [3]; HEPES buffer pH 7.00) of the same molecule?
A: 4791

Q: And the “+ (amount of radiation)” value (human G34 protein [3]; HEPES buffer pH 7.30)?
A: 4294

Q: What about the “HEPES (+ minus −)” value (human G34 protein [3]; HEPES buffer pH 7.30) of the same molecule?
A: 4167

Q: What about the “+ (amount of radiation)” value (human G34 protein [3]; HEPES buffer pH 7.40) of the same molecule?
A: 6630

Q: And the “HEPES (+ minus −)” value (human G34 protein [3]; HEPES buffer pH 7.40)?
A: 6510

Q: What about the “+ (amount of radiation)” value (human G34 protein [3]; HEPES buffer pH 7.50) of the same molecule?
A: 6895

Q: And the “HEPES (+ minus −)” value (human G34 protein [3]; HEPES buffer pH 7.50)?
A: 6655

Q: And the “+ (amount of radiation)” value (human G34 protein [3]; MES buffer pH 5.50)?
A: 3735

Q: What about the “MES (+ minus −)” value (human G34 protein [3]; MES buffer pH 5.50) of the same molecule?
A: 3538

Q: And the “+ (amount of radiation)” value (human G34 protein [3]; MES buffer pH 5.78)?
A: 3755

Q: And the “MES (+ minus −)” value (human G34 protein [3]; MES buffer pH 5.78)?
A: 3571

Q: And the “+ (amount of radiation)” value (human G34 protein [3]; MES buffer pH 6.00)?
A: 2514

Q: What about the “MES (+ minus −)” value (human G34 protein [3]; MES buffer pH 6.00) of the same molecule?
A: 2373

Q: What about the “+ (amount of radiation)” value (human G34 protein [3]; MES buffer pH 6.50) of the same molecule?
A: 1981

Q: What about the “MES (+ minus −)” value (human G34 protein [3]; MES buffer pH 6.50) of the same molecule?
A: 1247

Q: What about the “+ (amount of radiation)” value (human G34 protein [3]; MES buffer pH 6.75) of the same molecule?
A: 3289

Q: What about the “MES (+ minus −)” value (human G34 protein [3]; MES buffer pH 6.75) of the same molecule?
A: 3153

Q: What about the “+ (amount of radiation)” value (human G34 protein [3]; [4]) of the same molecule?
A: 6042

Q: And the “Sodium cacodylate (+ minus −)” value (human G34 protein [3]; [4])?
A: 5838

Q: And the “+ (amount of radiation)” value (human G34 protein [3]; [5])?
A: 3353

Q: And the “Sodium cacodylate (+ minus −)” value (human G34 protein [3]; [5])?
A: 3194

Q: And the “+ (amount of radiation)” value (human G34 protein [3]; [6])?
A: 2689

Q: And the “Sodium cacodylate (+ minus −)” value (human G34 protein [3]; [6])?
A: 2429

Q: And the “+ (amount of radiation)” value (human G34 protein [3]; [7])?
A: 907

Q: And the “Sodium cacodylate (+ minus −)” value (human G34 protein [3]; [7])?
A: 769

Q: And the “+ (amount of radiation)” value (human G34 protein [3]; [8])?
A: 1093

Q: What about the “Sodium cacodylate (+ minus −)” value (human G34 protein [3]; [8]) of the same molecule?
A: 957

Q: And the “+ (amount of radiation)” value (human G34 protein [3]; [9])?
A: 2488

Q: What about the “Sodium cacodylate (+ minus −)” value (human G34 protein [3]; [9]) of the same molecule?
A: 2230

Q: And the “+ (amount of radiation)” value (human G34 protein [3]; [10])?
A: 4965

Q: And the “Sodium cacodylate (+ minus −)” value (human G34 protein [3]; [10])?
A: 4706

Q: And the “+ (amount of radiation)” value (human G34 protein [3]; [11])?
A: 4377

Q: And the “Sodium cacodylate (+ minus −)” value (human G34 protein [3]; [11])?
A: 4068

Q: And the “+ (amount of radiation)” value (human G34 protein [3]; [12])?
A: 4930

Q: And the “Sodium cacodylate (+ minus −)” value (human G34 protein [3]; [12])?
A: 4626
